As usually defined, the EC50 is the midpoint of the concentration-response curve. What is called Ki is the equilibrium dissociation constant of an inhibitor or competing ligand from its target.

For test [1], the target named is Guanylate cyclase C (GC-C) (human), P25092. As to the kind of experiment: cell-based or functional assay.
The target is the same in test [2].

Chain of Guanylate cyclase C (GC-C) (human), P25092 (P25092 24-1073): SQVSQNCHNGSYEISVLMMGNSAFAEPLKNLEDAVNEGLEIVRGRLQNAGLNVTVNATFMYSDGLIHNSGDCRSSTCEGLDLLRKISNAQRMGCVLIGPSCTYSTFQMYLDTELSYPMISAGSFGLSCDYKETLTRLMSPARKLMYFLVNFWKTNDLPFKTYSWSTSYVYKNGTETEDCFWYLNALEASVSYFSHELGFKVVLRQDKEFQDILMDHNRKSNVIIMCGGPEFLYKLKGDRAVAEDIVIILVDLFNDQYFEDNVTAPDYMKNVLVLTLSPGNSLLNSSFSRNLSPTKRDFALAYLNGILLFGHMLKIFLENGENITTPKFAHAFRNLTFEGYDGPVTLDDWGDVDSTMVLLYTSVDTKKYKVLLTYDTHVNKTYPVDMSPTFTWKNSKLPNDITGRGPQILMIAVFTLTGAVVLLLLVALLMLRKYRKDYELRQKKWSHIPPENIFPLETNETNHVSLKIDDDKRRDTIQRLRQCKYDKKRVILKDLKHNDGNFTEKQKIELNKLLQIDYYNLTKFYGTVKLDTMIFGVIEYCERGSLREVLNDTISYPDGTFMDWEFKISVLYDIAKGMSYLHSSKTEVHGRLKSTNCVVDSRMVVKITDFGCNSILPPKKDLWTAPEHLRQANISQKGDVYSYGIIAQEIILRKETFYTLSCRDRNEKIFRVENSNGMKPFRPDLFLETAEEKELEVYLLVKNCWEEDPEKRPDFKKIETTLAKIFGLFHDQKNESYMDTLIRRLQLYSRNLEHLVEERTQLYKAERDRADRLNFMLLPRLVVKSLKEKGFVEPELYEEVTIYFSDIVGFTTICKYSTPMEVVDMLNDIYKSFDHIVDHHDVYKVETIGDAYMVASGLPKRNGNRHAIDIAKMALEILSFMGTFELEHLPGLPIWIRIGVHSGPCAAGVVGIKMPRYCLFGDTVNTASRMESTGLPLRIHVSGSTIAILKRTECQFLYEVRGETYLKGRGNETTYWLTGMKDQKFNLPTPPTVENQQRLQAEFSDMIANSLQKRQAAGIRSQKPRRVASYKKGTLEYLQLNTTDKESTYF

B1: Peptide 3 (peptide)
peptide: CCELCCNPACTGCY
modifications: not checked
Turning to B1, in test [1], the EC50 at pH 5 (nM), cGMP response of T84 cells is 16 nM. Further, the Ki in test [2] came to 1.2 nM.

For the origin of these results see patent US20150030697A1.
